As usually defined, the EC50 (read off the curve) is the concentration needed to bring the measured effect to its halfway point. High values mean a less potent agent, low ones a more potent agent. Broadly, the EC50 is the concentration that produces a half-maximal response. A low value points to an effect from little substance. In general, Kd refers to the free concentration of one partner at which half of the binding sites on the other are occupied at equilibrium, for simple one-to-one binding. A low value points to higher affinity. Broadly, the koff is the rate constant with which the complex falls apart. A higher koff goes with fast dissociation. What is called kon is a measure of how fast the partners come together.

Data on nine molecules can be found in patent publication US20260078196A1 (TJ BIOPHARMA SHANGHAI, published 2026).

One test deals with T1, ROR1 on cells (UniProt Q01973 30-937).
T1 construct: whole, on cells; also called ROR1 endogenous expressed tumor cell A549; ROR1-positive tumor cell lines
The test can be described thus: flow cytometry (gMFI) on A549 cells.

The target in test [1] is T2, HEK293-MUC16 (13810-14507) (human, UniProt Q8WXI7 13810-14507).
T2 construct: range 13810-14507; also called MUC16 overexpressed HEK293 cells
T2 sequence: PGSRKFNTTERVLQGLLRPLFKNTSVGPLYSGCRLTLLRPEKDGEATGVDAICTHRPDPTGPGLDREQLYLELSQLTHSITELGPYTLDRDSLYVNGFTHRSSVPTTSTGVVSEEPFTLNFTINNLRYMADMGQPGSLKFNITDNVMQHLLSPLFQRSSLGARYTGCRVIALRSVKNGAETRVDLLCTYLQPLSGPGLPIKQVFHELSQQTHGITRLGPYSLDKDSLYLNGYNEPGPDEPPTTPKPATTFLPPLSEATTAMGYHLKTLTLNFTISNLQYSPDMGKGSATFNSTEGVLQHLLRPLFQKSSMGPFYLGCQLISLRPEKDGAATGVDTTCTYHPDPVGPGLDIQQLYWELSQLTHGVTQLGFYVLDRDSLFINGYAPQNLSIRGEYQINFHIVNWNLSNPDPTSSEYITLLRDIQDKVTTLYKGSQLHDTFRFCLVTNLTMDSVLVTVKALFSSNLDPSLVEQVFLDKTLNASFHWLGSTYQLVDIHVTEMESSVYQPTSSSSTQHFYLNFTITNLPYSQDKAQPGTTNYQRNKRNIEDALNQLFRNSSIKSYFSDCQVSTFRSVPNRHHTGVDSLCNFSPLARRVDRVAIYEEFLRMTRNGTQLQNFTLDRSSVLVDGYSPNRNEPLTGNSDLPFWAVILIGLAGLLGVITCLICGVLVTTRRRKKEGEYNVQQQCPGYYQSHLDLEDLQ
The test can be described thus: flow cytometry (MFI GeoMean) on HEK293-MUC16 (13810-14507) cells, nM is the unit of the x axis Log10[Ab] (nM). In general terms: In flow cytometry, cells or beads pass a laser one at a time.

In test [2] the target is T3, human MUC16 on cells (human, UniProt Q8WXI7 1-14507).
T3 construct: whole, on cells; also called huMUC16; MUC16 on OVCAR3 and SNU216 cells
The experiment in a line: flow cytometry (MFI GeoMean) on SNU216 cells, nM is the unit of the x axis Log10[Ab] (nM).

In test [3] the target is T3, human MUC16 on cells. The experiment in a line: flow cytometry (GMFI) on OVCAR3 cells, nM is the unit of the x axis Log10[Ab] (nM).
A further test deals with T4, human MUC16 (human).
T4 construct: also called MUC16 antigen of the kinetic assay
The test can be described thus: binding kinetics, sensorgrams in RU in FIG. 14B, model printed: Kinetics 1:1; form of the MUC16 antigen not given.

The target of test [4] is T3, human MUC16 on cells. The test can be described thus: flow cytometry (MFI GeoMean) on OVCAR3 cells, nM is the unit of the x axis Log10[Ab] (nM).
In a further test the target is T5, huMUC16, AA14198-14507.
T5 chain: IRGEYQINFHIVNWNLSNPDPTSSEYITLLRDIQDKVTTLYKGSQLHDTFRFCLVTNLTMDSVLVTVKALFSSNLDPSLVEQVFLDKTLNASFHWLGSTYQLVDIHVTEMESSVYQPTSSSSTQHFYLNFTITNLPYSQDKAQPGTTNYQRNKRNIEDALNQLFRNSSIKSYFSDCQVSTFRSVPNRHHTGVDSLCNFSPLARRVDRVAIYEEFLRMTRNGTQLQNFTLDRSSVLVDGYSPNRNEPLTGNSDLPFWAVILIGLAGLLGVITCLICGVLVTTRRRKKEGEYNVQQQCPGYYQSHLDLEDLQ
The experiment in a line: binding ELISA on huMUC16 AA14198-14507. In general terms: ELISA stands for enzyme-linked immunosorbent assay.

Test [5] has as its target T3, human MUC16 on cells. The experiment in a line: flow cytometry (GMFI) on OVCAR3 cells, nM is the unit of the x axis Log10[Ab] (nM); curve without upper plateau.
The target in another test is T6, huMUC16, AA13789-14451.
T6 construct: also called MUC16 Antigen (human MUC16 AA13789-14451)
T6 chain: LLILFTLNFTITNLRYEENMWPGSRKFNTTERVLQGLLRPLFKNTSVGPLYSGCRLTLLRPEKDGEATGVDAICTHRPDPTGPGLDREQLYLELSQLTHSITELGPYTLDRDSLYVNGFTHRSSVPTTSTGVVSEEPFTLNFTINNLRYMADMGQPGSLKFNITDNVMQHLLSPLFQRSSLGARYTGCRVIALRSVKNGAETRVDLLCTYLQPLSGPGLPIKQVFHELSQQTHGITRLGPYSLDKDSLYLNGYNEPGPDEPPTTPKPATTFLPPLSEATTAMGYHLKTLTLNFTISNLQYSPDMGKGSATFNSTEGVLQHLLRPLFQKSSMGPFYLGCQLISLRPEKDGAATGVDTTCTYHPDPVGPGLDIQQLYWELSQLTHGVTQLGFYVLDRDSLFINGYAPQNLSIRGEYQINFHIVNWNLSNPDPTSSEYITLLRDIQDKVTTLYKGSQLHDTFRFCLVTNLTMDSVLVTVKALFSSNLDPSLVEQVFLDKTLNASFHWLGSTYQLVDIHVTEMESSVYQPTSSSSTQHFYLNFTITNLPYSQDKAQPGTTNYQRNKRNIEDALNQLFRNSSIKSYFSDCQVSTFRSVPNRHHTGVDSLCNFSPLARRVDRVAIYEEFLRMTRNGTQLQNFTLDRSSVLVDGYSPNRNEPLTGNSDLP
The test can be described thus: binding ELISA on huMUC16 AA13789-14451.

For test [6], the target named is T3, human MUC16 on cells. The test can be described thus: flow cytometry (GMFI) on OVCAR3 cells, nM is the unit of the x axis Log10[Ab] (nM); curve without upper plateau. This is another data set of the same source.

B1: humanized 3C5 anti-ROR1 mAb (antibody, V domains shown)
VH: EVQLVESGGGLVKPGGSLRLSCAASGFTFSSYAMSWVRQAPGKRLEWVSSISSGGTTYYPDTVKGRFTISRDNAKNSLYLQMNSLRAEDTAVYYCARDALYYGSSLYYAMDYWGQGTLVTVSS
VL: DIQMTQSPSSLSASVGDRVTITCRASQDIYSYLSWFQQKPGKAPKTLIYRANRLVDAVPSRFSGSGSGQDYTLTISSLQPEDFATYYCLQYDEFPYTFGQGTKLEIK
notes: also called h3C5; h3C5-PTM
Turning to B1, in the test with ROR1 on cells, the “EC50 (read off the curve)” value is roughly 0.04 nM.

B2: D57 (antibody, V domains shown)
VH: EVQLLESGGGLVTPGGSLRLSCTASGFTFSDYYLSWVRQAPGKGLEWMGGIIPIFGTANYAQKFQGRVTITADESTSTAYMELSSLRSEDTAVYYCARGGPHYDFWSGYTPGQHGGAFDIWGQGTMVTVSS
VL: EIVLTQSPGTLSLSPGERATLSCRASQSVSSSYLAWYQQKPGQAPRLLIYGASSRATGIPDRFSGSGSGTDFTLTISRLEPEDFAVYYCQQRSNWRNTFGQGTRLEIK
notes: Anti-MUC16 mAb; also called MUC16-D57
As to B2, the EC50 in test [1] stood at 0.579 nM; with human MUC16 on cells [2] it was 1.24 nM; with human MUC16 on cells [3], 0.526 nM; in the test with human MUC16 on cells [4], 0.763 nM. The molecule further registered a Kd with human MUC16 of 5.26 nM. Also, in the test with human MUC16, the koff was found to be 0.0035 s⁻¹.

B3: D79 (antibody, V domains shown)
VH: QMQLVQSGAEVKKPGSSVKVSCKASGGTFSSYAISWVRQAPGQGLEWMGGIIPIFGTANYAQKFQGRVTITADESTSTAYMELSSLRSEDTAVYYCARDSGSSITMVRGGDYYYMDVWGKGTTVTVSS
VL: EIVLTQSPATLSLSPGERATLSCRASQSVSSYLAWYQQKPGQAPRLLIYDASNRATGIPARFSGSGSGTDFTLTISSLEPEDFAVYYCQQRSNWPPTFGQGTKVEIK
notes: Anti-MUC16 mAb
Consider B3, for which the binding result with huMUC16, AA14198-14507 was “no binding (tested: 100 nM)”; with huMUC16, AA13789-14451 it was “binds”. The molecule further displayed an EC50 with human MUC16 on cells [5] of 40.6 nM.

B4: D100 (antibody, V domains shown)
VH: QVQLVQSGAEVKKPGSSVKVSCKASGGTFSRYHAISWVRQAPGQGLEWMGGIIPILGTANYAQKFQGRVTITADESTSTAYMELSSLRSEDTAVYYCASGTTAARYYYYYYYMDVWGKGTTVTVSS
VL: NIQMTQSPSSLSASVGDRVTITCQASQDISNYLNWFHQKPGKAPNLLIYDASNLETGVPSRFSGSGSGTDFTFTISSLQPEDIGTYYCQQYDNLPLTFGGGTKVDIK
notes: Anti-MUC16 mAb; also called MUC16-D100
B4: the EC50 was determined as 0.0874 nM in [1], 0.12 nM with human MUC16 on cells [2], 0.395 nM with human MUC16 on cells [3] and 0.286 nM with human MUC16 on cells [4]. In addition, the binding result is on record as “no binding (tested: 100 nM)” with huMUC16, AA14198-14507 and “binds” with huMUC16, AA13789-14451.

B5: B218 (antibody, V domains shown)
VH: EVQLLESGAEVKKPGSSVKVSCKASGGTFSSYAISWVRQAPGQGLEWMGGIIPIFGTANYAQKFQGRVTITADESTSTAYMELSSLRSEDTAVYYCARGGPHYDFWSGYTPGQHGGAFDIWGQGTMVTVSS
VL: NIQMTQSPSTLSASLGDRVSITCRASQSISGWLAWYQQKPGKAPKLLIYRTSYLESGVPSRFSAGGSGTEFTLTISSLQPDDFATYYCQHYDTFSRAFGQGTKVDIK
notes: Anti-MUC16 mAb; also called MUC16-B218
B5: the EC50 in test [1] was 0.244 nM; with human MUC16 on cells [2], 0.76 nM; with human MUC16 on cells [3] it was 0.687 nM; with human MUC16 on cells [4] it was 0.907 nM. Further, the binding result in the test with huMUC16, AA14198-14507 was “no binding (tested: 100 nM)”; with huMUC16, AA13789-14451 it was “binds”. In the test with human MUC16, this molecule came in with a Kd of 6.17 nM. This molecule showed a koff with human MUC16 of 0.0031 s⁻¹. In addition, the kon with human MUC16 is 502000 M⁻¹ s⁻¹.

B6: B76 (antibody, V domains shown)
VH: QMQLVQSGAEVKKPGSSVKVSCKASGGTFSSYAISWVRQAPGQGLEWMGGIIPIFGTANYAQKFQGRVTITADESTSTAYMELSSLRSEDTAVYYCARSITDYYDSSGYYFRPHFNTGYYYGMDVWGQGTTVTVSS
VL: NIQLTQSPSSLSASVGDRVTITCRASQGINNYLAWYQQKPGKVPKLLIYAASTLQSGVPSRFSGSGSGTDFTLTITNLQPDDFATYYCQQYDTFSETFGPGTKVEIK
notes: Anti-MUC16 mAb
On to B6, for which the binding result in the test with huMUC16, AA14198-14507 is listed as “no binding (tested: 100 nM)”; with huMUC16, AA13789-14451, “binds”. In addition, the EC50 in the test with human MUC16 on cells [5] amounted to 16.8 nM.

B7: D41 (antibody, V domains shown)
VH: EVQLLESGGGLVQPGGSLRLSCAASGFTFSSYEMNWVRQAPGKGLEWVGRIKSKTDGGTTDYAAPVKGRFTISRDDSKNTLYLQMNSLKTEDTAVYYCTTDLAAVAGLFDYWGQGTTVTVSS
VL: DIQLTQSPSSLSASVGDRVTITCQASQDISNYLNWYQQKPGKAPKLLIYDASNLETGVPSRFSGSGSGTDFTLTISSLQPEDFATYYCQQSYSTPWKFGQGTKVEIK
notes: Anti-MUC16 mAb
On to B7, for which the binding result with huMUC16, AA14198-14507 is listed as “no binding (tested: 100 nM)”; in the test with huMUC16, AA13789-14451, “binds”. In the test with human MUC16 on cells [6], this molecule had an EC50 of 23.1 nM.

B8: B195 (antibody, V domains shown)
VH: EVQLVQSGAEVKKPGASVKVSCKASGGTFSSYAISWVRQAPGQGLEWMGGIIPIFGTANYAQKFQGRVTITADESTSTAYMELSSLRSEDTAVYYCAREGPDYGDYSWSMDYYYGMDVWGQGTMVTVSS
VL: EIVMTQSPGTLSLSPGERATLSCRASQSVNSRYLAWYQHKPGQAPRLLMYGASTRATGIPDRFSGSGSGTDFTLTISRLEPEDFAVYYCQQYGTFSITFGQGTRLEIK
notes: Anti-MUC16 mAb
B8: the binding result with huMUC16, AA14198-14507 is “no binding (tested: 100 nM)”; with huMUC16, AA13789-14451, “binds”. Also, in the test with human MUC16 on cells [5], a half-maximal response (EC50) required 15.1 nM.

B9: 3C5 (antibody, V domains shown)
VH: EVKLVESGGGLVKPGGSLKLSCAASGFTFSSYAMSWVRQTPEKRLEWVSSISSGGTTYYPDTVKGRFTISRDNARNILYLQMSSLRSEDTAMYYCARDSLYYGSSLYYAMDYWGQGTSVTVSS
VL: DIKMTQSPSSMYASLGERVSITCRASQDIYSYLSWFQQKPGKSPKTLIYRANRLVDGVPSRFSGSGSGQDYSLTISSLEYEDMGIYYCLQYDEFPYTFGGGTKLEIK
notes: Anti-ROR1 mAb (chimeric section 9.1); also called anti-ROR1 mAb 3C5
B9: the concentration giving a half-maximal response (EC50 (read off the curve)) with ROR1 on cells was roughly 0.04 nM.
